The Ki is the dissociation constant of the complex between target and ligand, obtained from inhibition or displacement.

Where two headings read alike, the source gives them in different places. Side-chain parts run from the residue outwards. [ ]: non-standard residue; d: D form. Ac‑(Lys-Ac)Lys‑Lys = branched amino acid probe attached to the ε-amino group of the lysine

The record followed here is patent US9950027 (TXP PHARMA, dated 2018).

Test [1] concerns the target T1, MC3r (human recombinant, CHO cells) (human, UniProt P41968 1-323).
T1 construct: whole, on cells
The experiment in a line: radioligand binding, CHO cells expressing human MC3r; affinity as a multiple of αMSH's.

For test [2], the target named is T2, MC1r (murine B16-F1 cells) (murine, UniProt Q01727 1-315).
T2 construct: whole, on cells; also called MCr1
The experiment in a line: radioligand binding, murine B16-F1 cells expressing MC1r; affinity as a multiple of αMSH's.

Test [3] has as its target T3, MC4r (human recombinant, CHO cells) (human, UniProt P32245 1-332).
T3 construct: whole, on cells
Nature of the test: radioligand binding, CHO cells expressing human MC4r; affinity as a multiple of αMSH's.

Test [4] deals with T4, MC5r (human recombinant, CHO cells) (human, UniProt P33032 1-325).
T4 construct: whole, on cells
The experiment in a line: displacement of 125I-NDP-αMSH, CHO cells expressing human MC5r (method of Example 2, not restated). As to the method: (§1) Murine B16-F1 cells expressing MCr1 are used for determination of binding affinity to and agonist activity against the MC1r. Human recombinant CHO cells expressing MC3r, MC4r or MC5r are used for determination of affinity to or agonist activity against the MC3r, MC4r and MC5r, respectively. […] The test items are tested in a concentration range of 10^-13 to 10^-5M.
(Loss of bound radioactivity is the signal in a displacement assay; it reports binding, not function.)

Test [5] concerns the target T2, MC1r (murine B16-F1 cells). The experiment in a line: displacement of 125I-NDP-αMSH, murine B16-F1 cells expressing MC1r (method of Example 2, not restated). As to the method:
as §1

The target in test [6] is T4, MC5r (human recombinant, CHO cells). The experiment in a line: cell-based or functional assay.
In test [7] the target is T2, MC1r (murine B16-F1 cells). The experiment in a line: cell-based or functional assay.
The target of test [8] is T3, MC4r (human recombinant, CHO cells). Nature of the test: cell-based or functional assay.
Test [9] has the same target. Nature of the test: displacement of 125I-NDP-αMSH, CHO cells expressing human MC4r (method of Example 2, not restated). As to the method:
as §1

The target in test [10] is T1, MC3r (human recombinant, CHO cells). Nature of the test: displacement of 125I-NDP-αMSH, CHO cells expressing human MC3r (method of Example 2, not restated). As to the method:
as §1

Test [11] shares this target. Nature of the test: displacement of 125I-NDP-αMSH, CHO cells expressing human MC3r; affinity as a multiple of αMSH's. As to the method:
as §1

Test [12] concerns the target T3, MC4r (human recombinant, CHO cells). The experiment in a line: displacement of 125I-NDP-αMSH, CHO cells expressing human MC4r; affinity as a multiple of αMSH's. As to the method:
as §1

Test [13] has as its target T5, recombinant human type 2 Formyl peptide receptor (FPR2) (human, UniProt P25090 1-351).
T5 sequence (looked up): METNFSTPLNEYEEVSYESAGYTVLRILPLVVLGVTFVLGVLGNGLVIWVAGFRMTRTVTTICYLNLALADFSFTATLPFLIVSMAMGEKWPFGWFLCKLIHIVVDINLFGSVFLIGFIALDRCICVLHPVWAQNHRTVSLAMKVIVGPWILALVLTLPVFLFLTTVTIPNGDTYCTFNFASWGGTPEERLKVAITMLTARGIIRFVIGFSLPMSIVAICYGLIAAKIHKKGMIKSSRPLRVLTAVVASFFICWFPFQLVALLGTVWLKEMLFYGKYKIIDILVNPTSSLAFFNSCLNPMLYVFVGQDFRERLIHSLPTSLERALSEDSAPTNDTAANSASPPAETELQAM
The experiment in a line: cell-based or functional assay.

Test [14] concerns the target T4, MC5r (human recombinant, CHO cells). The experiment in a line: displacement of 125I-NDP-αMSH, human recombinant CHO cells expressing MC5r. As to the method:
as §1

For test [15] the target is unchanged. The experiment in a line: displacement of 125I-NDP-αMSH, CHO cells expressing human MC5r; affinity as a multiple of αMSH's. As to the method:
as §1

Test [16] addresses T2, MC1r (murine B16-F1 cells). The experiment in a line: displacement of 125I-NDP-αMSH, murine B16-F1 cells expressing MC1r; affinity as a multiple of αMSH's. As to the method:
as §1

Test [17] addresses T4, MC5r (human recombinant, CHO cells). Nature of the test: cell-based or functional assay. The source holds these as a separate data set.
Test [18] has as its target T1, MC3r (human recombinant, CHO cells). Nature of the test: cell-based or functional assay.
In test [19] the target is T2, MC1r (murine B16-F1 cells). The experiment in a line: cell-based or functional assay. This is another data set of the same source.
In test [20] the target is T3, MC4r (human recombinant, CHO cells). Nature of the test: cell-based or functional assay. The source holds these as a separate data set.
The target is the same in test [21]. The experiment in a line: displacement of 125I-NDP-αMSH, human recombinant CHO cells expressing MC4r. As to the method:
as §1

The target of test [22] is T1, MC3r (human recombinant, CHO cells). Nature of the test: displacement of 125I-NDP-αMSH, human recombinant CHO cells expressing MC3r. As to the method: as §1
Test [23] has as its target T2, MC1r (murine B16-F1 cells). The experiment in a line: displacement of 125I-NDP-αMSH, murine B16-F1 cells expressing MC1r. As to the method: as §1
A further test has as its target T6, human GLP-2 receptor (human, UniProt O95838 1-553).
T6 sequence (looked up): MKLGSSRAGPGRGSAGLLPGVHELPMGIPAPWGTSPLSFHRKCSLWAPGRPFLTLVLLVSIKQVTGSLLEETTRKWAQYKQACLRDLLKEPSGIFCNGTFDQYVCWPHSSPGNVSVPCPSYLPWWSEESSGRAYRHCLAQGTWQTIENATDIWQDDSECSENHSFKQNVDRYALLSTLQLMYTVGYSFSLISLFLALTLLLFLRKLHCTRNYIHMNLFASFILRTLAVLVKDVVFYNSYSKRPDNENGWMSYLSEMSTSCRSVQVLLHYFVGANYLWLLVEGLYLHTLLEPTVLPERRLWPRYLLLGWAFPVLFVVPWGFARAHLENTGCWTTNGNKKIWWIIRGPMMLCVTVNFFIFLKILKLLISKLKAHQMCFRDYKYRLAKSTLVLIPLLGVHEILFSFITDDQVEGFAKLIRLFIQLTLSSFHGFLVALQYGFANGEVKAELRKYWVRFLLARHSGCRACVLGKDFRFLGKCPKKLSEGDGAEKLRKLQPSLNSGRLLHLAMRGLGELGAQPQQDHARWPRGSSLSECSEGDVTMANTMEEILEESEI
The experiment in a line: cell-based or functional assay.

T1 sequence (P41968 whole entry): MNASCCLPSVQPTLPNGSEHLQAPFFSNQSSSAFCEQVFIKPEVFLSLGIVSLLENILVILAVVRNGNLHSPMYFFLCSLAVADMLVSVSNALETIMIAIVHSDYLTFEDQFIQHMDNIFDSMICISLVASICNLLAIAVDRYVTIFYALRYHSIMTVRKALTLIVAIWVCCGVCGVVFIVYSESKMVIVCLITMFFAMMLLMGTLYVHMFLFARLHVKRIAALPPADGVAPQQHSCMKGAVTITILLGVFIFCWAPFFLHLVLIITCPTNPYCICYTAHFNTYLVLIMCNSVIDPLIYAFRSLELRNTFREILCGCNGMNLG
T2 sequence (Q01727 whole entry): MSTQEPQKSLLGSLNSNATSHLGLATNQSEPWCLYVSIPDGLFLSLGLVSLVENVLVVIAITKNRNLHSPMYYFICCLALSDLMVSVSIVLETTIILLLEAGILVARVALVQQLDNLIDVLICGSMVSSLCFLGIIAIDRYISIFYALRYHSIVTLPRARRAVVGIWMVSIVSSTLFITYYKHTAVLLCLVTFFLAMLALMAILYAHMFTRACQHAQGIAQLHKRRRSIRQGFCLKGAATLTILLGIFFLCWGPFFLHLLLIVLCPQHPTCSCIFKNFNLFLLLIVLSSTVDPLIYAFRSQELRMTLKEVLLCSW
T3 sequence (P32245 whole entry): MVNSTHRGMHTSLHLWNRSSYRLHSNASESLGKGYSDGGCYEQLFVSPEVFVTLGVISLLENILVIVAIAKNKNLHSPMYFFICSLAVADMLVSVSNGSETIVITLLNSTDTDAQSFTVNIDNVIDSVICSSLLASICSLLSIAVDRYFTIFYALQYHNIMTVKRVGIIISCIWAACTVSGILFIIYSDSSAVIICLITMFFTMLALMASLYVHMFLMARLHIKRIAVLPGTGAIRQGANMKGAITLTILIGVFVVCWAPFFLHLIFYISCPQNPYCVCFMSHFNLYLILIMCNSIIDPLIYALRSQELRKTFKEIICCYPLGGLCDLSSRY
T4 sequence (P33032 whole entry): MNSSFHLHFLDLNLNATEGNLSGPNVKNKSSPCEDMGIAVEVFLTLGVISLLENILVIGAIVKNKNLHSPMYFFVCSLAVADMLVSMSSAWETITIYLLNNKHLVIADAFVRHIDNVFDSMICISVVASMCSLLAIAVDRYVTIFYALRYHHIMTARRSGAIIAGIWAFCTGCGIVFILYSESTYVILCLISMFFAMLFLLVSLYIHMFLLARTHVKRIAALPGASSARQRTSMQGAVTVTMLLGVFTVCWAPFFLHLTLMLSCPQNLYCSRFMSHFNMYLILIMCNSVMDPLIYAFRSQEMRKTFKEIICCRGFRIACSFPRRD

B1: Analogue 5 (Example 3): Ac-(Ac-Lys-Lys)Lys-Tyr-Val-Nle-Gly-His-Phe-Arg-DTrp-Asp-Arg-Phe-Gly-NH2 (peptide)
peptide: KYVXGHFRWDRFG
modifications: alpha-amino group of Lys1 acetylated; Ac-Lys-Lys attached to the epsilon-amino group of Lys1; Nle at position 4 (written X); D-Trp at position 9; C-terminal amide
notes: BAP-modified γ-MSH analogue; X = norleucine
For B1, the “MCr binding affinity relative to αMSH” value in [1] amounted to 38 fold; in [2] it was 1.9 fold; in test [3], 2.8 fold.

B2: Analogue 7 (Example 3): Ac-(Ac-Lys-Lys)Lys-Tyr-Val-Nle-Gly-His-DPhe-Arg-Trp-Asp-Arg-Phe-Gly-NH2 (peptide)
peptide: KYVXGHFRWDRFG
modifications: alpha-amino group of Lys1 acetylated; Ac-Lys-Lys attached to the epsilon-amino group of Lys1; Nle at position 4 (written X); D-Phe at position 7; C-terminal amide
notes: as for B1
Regarding B2, the “MCr binding affinity relative to αMSH” value in test [1] is 46 fold; in test [3] it was 37 fold.

B3: Analogue 6 (Example 3): Ac-(Ac-Lys-Lys)Lys-Tyr-Val-Nle-Gly-His-Phe-Arg-Trp-Asp-Arg-Phe-Gly-NH2 (peptide)
peptide: KYVXGHFRWDRFG
modifications: alpha-amino group of Lys1 acetylated; Ac-Lys-Lys attached to the epsilon-amino group of Lys1; Nle at position 4 (written X); C-terminal amide
notes: as for B1
B3: the “MCr binding affinity relative to αMSH” value was found to be 4.6 fold in test [1] and 2.9 fold in test [3].

B4: γ-MSH Analogue 1: Ac-(Ac-Lys-Lys)Lys-Tyr-Val-Met-Gly-His-Phe-Arg-DTrp-Asp-Arg-Phe-Gly-NH2 (peptide)
peptide: KYVMGHFRWDRFG
modifications: alpha-amino group of Lys1 acetylated; Ac-Lys-Lys attached to the epsilon-amino group of Lys1; D-Trp at position 9; C-terminal amide
Consider B4, for which the Ki worked out at 215 nM in test [4], 3.8 nM in [5], 150 nM in test [9] and 15 nM in test [10]. The “EC50, cAMP accumulation (agonist activity)” value in [6] is 555 nM; in [7] it was 68 nM; in test [8], 252 nM.

B5: Analogue 3 (Example 2): Ac-(Ac-Lys-Lys)Lys-Ser-Tyr-Ser-Nle-Glu-His-DPhe-Arg-Trp-Gly-Lys-Pro-Val-NH2 (peptide)
peptide: KSYSXEHFRWGKPV
modifications: alpha-amino group of Lys1 acetylated; Ac-Lys-Lys attached to the epsilon-amino group of Lys1; Nle at position 5 (written X); D-Phe at position 8; C-terminal amide
notes: BAP-modified α-MSH analogue; X = norleucine
B5: the figures for the “MCr binding relative to Control peptide 1 (αMSH)” value in test [11] and in [12] were 41 fold and 47 fold, respectively.

Regarding Ac-AMVSEFLK(Ac‑(Lys-Ac)Lys‑Lys)QAW-NH2, the “EC50, agonist activity (aequorin light emission)” value in [13] turned out to be 1560 nM.

B6: Analogue 8 (Example 3): Ac-(Ac-Lys-Lys)Lys-Tyr-Val-Nle-Gly-His-DPhe-Arg-DTrp-Asp-Arg-Phe-Gly-NH2 (peptide)
peptide: KYVXGHFRWDRFG
modifications: alpha-amino group of Lys1 acetylated; Ac-Lys-Lys attached to the epsilon-amino group of Lys1; Nle at position 4 (written X); D-Phe at position 7; D-Trp at position 9; C-terminal amide
notes: as for B1
Consider B6, for which the “MCr binding affinity relative to αMSH” value was determined as 37 fold in test [1], 7.3 fold in test [2] and 10.7 fold in test [3].

B7: α-MSH Analogue 1: Ac-(Ac-Lys-Lys)Lys-Ser-Tyr-Ser-Met-Glu-His-Phe-Arg-Trp-Gly-Lys-Pro-Val-NH2 (peptide)
peptide: KSYSMEHFRWGKPV
modifications: alpha-amino group of Lys1 acetylated; Ac-Lys-Lys attached to the epsilon-amino group of Lys1 (branched amino acid probe Ac-(Ac-Lys-Lys)Lys-); C-terminal amide
Regarding B7, the inhibitory constant (Ki) stood at 193 nM in [14], 26 nM in [21], 24 nM in [22] and 1.2 nM in [23]. Further, the entries for the “MCr binding relative to Control peptide 1 (αMSH)” value in test [15] and in test [16] were 2 fold and 4 fold, respectively. For the same molecule, the “EC50, cAMP accumulation (agonist activity)” value in test [17] was found to be 625 nM; in test [18] it was 53 nM; in test [19] it was 8.9 nM; in test [20] it was 18 nM.

Regarding Ac-K([Lys-Lys-Ac])SSIISH[dF]RWGKPV-NH2 (BAP-modified α-MSH analogue) [Analogue 4 (Example 2): Ac-(Ac-Lys-Lys)Lys-Ser-Ser-Ile-Ile-Ser-His-DPhe-Arg-Trp-Gly-Lys-Pro-Val-NH2], the entries for the “MCr binding relative to Control peptide 1 (αMSH)” value in [16], in test [11] and in test [12] were 9.4 fold, 42 fold and 53 fold, respectively.

Turning to H-HADGSFSDEMNTILDNLAARDFINWLIQTKITDR-OH [GLP-2 (1-34) control peptide: …], in the test with human GLP-2 receptor, the “EC50 (nM), cAMP production (HTRF)” value was found to be 0.36 nM.

B8: Analogue 2 (Example 2): Ac-(Ac-Lys-Lys)Lys-Ser-Tyr-Ser-Met-Glu-His-Phe-Arg-Trp-Gly-Lys-Pro-(D-Val)-NH2 (peptide)
peptide: KSYSMEHFRWGKPV
modifications: alpha-amino group of Lys1 acetylated; Ac-Lys-Lys attached to the epsilon-amino group of Lys1; D-Val at position 14; C-terminal amide
notes: BAP-modified α-MSH analogue
B8: the entries for the “MCr binding relative to Control peptide 1 (αMSH)” value in test [11] and in test [12] were 3.3 fold and 8.5 fold, respectively.
